Assay results as given in paper PMC3176765, “Mechanism of the Interaction between the Intrinsically Disordered C-Terminus of the Pro-Apoptotic ARTS Protein and the Bir3 Domain of XIAP” (PLoS ONE, 2011).
Positions of bridges follow the written chain, without caps; N, C: chain ends. Residues, ends and D or L forms follow the SMILES beside them. Chains are numbered I, II in the order given. No end group written: not given here. *: point of attachment. 5FAM = O=C1OC2(c3ccc(O)cc3Oc3cc(O)ccc32)c2ccc(C(=O)*)cc21

Columns and labels:
[1] = biological target: T1, Bir3 subunit of the XIAP (residues 252–350) (Homo sapiens, UniProt P98170); experiment: Fluorescence spectroscopy binding of dimeric fl-ARTS 266–274 to Bir3 (Hill equation fit); conditions: fluorescence titration with Bir3; 20 mM Hepes pH 7.4, 45 mM NaCl, 10°C; Hill model, apparent averaged Kd; read-out: K d of dimeric peptide, fit to the Hill equation
T1 construct: The pET-21b(+) vector containing XIAP (252–350) Bir3 domain with a C-terminal His Tag; His tag (C); made in house; host or cells: E. coli BL21 Star (DE3)
T1 sequence (P98170 252-350): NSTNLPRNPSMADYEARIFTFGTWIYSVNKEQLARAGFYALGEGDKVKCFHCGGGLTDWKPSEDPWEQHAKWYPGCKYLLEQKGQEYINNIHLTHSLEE
Method: The importance of Cys273 residue for Bir3 binding raised the question of whether disulfide bond formation is involved in the interaction with Bir3. Addition of a reducing agent weakened the interaction between the ARTS derived peptides and Bir3 (Figure 4A). This raised the possibility that a disulfide bond is formed between two ARTS peptide molecules to form an active dimer. To test this, a covalent dimer of ARTS 266–274 was prepared by forming a disulfide bond between the Cys273 residues of two peptide monomers. MS gave a single peak corresponding the mass of the dimer (data not shown). […] Changes in the chemical shift of the sequentially following His274 and preceding Gln272 were also observed. Binding of Bir3 to the dimeric fl-ARTS 266–274 was studied using fluorescence spectroscopy (Fig. 6C). […]
Measurements were performed at 10°C by using a PerkinElmer LS-50b luminescence spectrofluorimeter equipped with a Hamilton microlabM dispenser as described in [44]. The fluorescently labeled peptide concentrations were determined by using a UV spectrophotometer (Shimadzu, Kyoto, Japan). […] Additions of 5 µl were titrated at 90 sec intervals, the solution was stirred for 15 sec, and the fluorescence and anisotropy were measured after each addition by using an excitation wavelength of 480 nm and an emission wavelength of 530 nm. […]

[2] = biological target: T1, Bir3 subunit of the XIAP (residues 252–350); experiment: Fluorescence anisotropy binding of fluorescein-labeled ARTS peptides to Bir3 (1:1 binding model); conditions: Bir3 titrated into fluorescein-labeled peptide, 20 mM Hepes pH 7.4, 45 mM NaCl, 10°C, no reducing agent, fit to 1:1 binding model, nb = no binding detected
Method: Fluorescence anisotropy was used to characterize the interaction between ARTS CTD and the Bir3 subunit of XIAP. ARTS CTD (residues 248–274) was synthesized using standard Fmoc chemistry and labeled with fluorescein at its N-terminus. The Bir3 subunit of the XIAP (residues 252–350) was expressed with a His-tag at the C-terminus and purified (see materials and methods and Figure S1). The binding experiments were done in 20 mM Hepes buffer, pH 7.4, 45 mM NaCl, at 10°C. Bir3 was titrated into fl-ARTS CTD and the data were fit to 1∶1 binding model resulting in K d = 8.0±0.7 µM (Figure 4A).
The pET-21b(+) vector containing XIAP (252–350) Bir3 domain with a C-terminal His Tag was transformed into E. coli strain BL21 Star^+ (DE3) (Novagen). Cells were grown at 37°C in LB medium to an optical density (600 nm) of ∼0.6 and induced with 0.4 mM isopropyl-β-D-1-thiogalactoside (IPTG). Cells were harvested after 8 h of incubation at 37°C and were lysed by Microfluidizer (Microfluidics). The protein was purified on HiTrap nickel-Sepharose FF column (100×10 mm, GE Healthcare), using an FPLC system (ÁKTA explorer, Amersham Biosciences). The eluted protein was further purified by filtration on a Sephacryl S100 column (950×26 mm; Amersham Biosciences). The protein was stored in 20 mM Hepes pH 7.4, 50 mM NaCl, 10 mM βME, 0.02% sodium azide and was dialyzed before experimental use.
Measurements were performed at 10°C by using a PerkinElmer LS-50b luminescence spectrofluorimeter equipped with a Hamilton microlabM dispenser as described in [44]. The fluorescently labeled peptide concentrations were determined by using a UV spectrophotometer (Shimadzu, Kyoto, Japan). The fluorescein-labeled ARTS derived peptides were dissolved in 20 mM Hepes buffer, pH 7.4 and 45 mM NaCl. 1 ml of the labeled peptide solution was placed in a cuvette, and the non-labeled Bir3 (200 µl, 150 µM) was placed in the dispenser. Additions of 5 µl were titrated at 90 sec intervals, the solution was stirred for 15 sec, and the fluorescence and anisotropy were measured after each addition by using an excitation wavelength of 480 nm and an emission wavelength of 530 nm. Dissociation constants (K d) were calculated by fitting the fluorescence titration curves (corrected for dilution) or fluorescence anisotropy curves to 1∶1 binding model using KALEIDAGRAPH (Synergy Software, Reading, PA). The following equation was used for the single-site model of the fluorescence results: [drawing 1] Where, F0 is the initial fluorescence, ΔF is the amplitude of the fluorescence change from unbound and bound states, K d is the dissociation constant and [Bir3] is the added concentration of Bir3 domain. A similar equation was used to fit the anisotropy results by replacing the fluorescence (F) with anisotropy (R) changes.

[3] = biological target: Dimer fl-ARTS 266-274 (human); experiment: other fluorescence titration; Bir3 titrated into dimeric fl-ARTS 266-274; fluorescence fit to the Hill equation; apparent averaged Kd; 20 mM Hepes pH 7.4, 45 mM NaCl, 10°C
[4] = biological target: T2, Bir3 domain of XIAP (residues 252-350) with a C-terminal His tag (UniProt P98170 252-350); experiment: NMR titration; TOCSY spectra of free and Bir3-bound ARTS CTD compared; peptide 0.5-1.5 mM, 20 mM deuterated Hepes, 45 mM potassium chloride, pH 6.8, 12°C; conditions: both partners purified
T2 construct: Stored with 10 mM beta-mercaptoethanol and dialysed before experimental use; also called Bir3 subunit of XIAP; XIAP (252-350); source: E. coli BL21 Star (DE3), purified (nickel-Sepharose, Sephacryl S100 gel filtration)
T2 sequence (P98170 252-350): as above

[5] = biological target: the molecule itself; experiment: SEC; analytical gel filtration of ARTS CTD 248-274 (1-2 mM) without DTT; 20 mM Hepes pH 7.4, 50 mM NaCl, 4°C; peaks identified by mass spectrometry; monomer to dimer
[6] = biological target: T2, Bir3 domain of XIAP (residues 252-350) …; experiment: fluorescence polarisation; non-labeled Bir3 (200 µl, 150 µM) titrated in 5 µl additions into 1 ml of fluorescein-labeled peptide; 20 mM Hepes pH 7.4, 45 mM NaCl, 10°C; fit to 1:1 binding model; conditions: both partners purified
[7] = biological target: T2, Bir3 domain of XIAP (residues 252-350) …; experiment: as above; conditions: both partners purified; remark: listed apart in the source

With `NC(=O)CC[C@H](NC(=O)CNC(=O)[C@H](CCC(N)=O)NC(=O)[C@H](Cc1c[nH]cn1)NC(=O)[C@H](CCC(=O)O)NC(=O)[C@H](CCC(N)=O)NC(=O)c1ccc2c(c1)C(=O)OC21c2ccc(O)cc2Oc2cc(O)ccc21)C(=O)NCC(=O)N[C@@H](CSSC[C@H](NC(=O)CNC(=O)[C@H](CCC(N)=O)NC(=O)CNC(=O)[C@H](CCC(N)=O)NC(=O)[C@H](Cc1c[nH]cn1)NC(=O)[C@H](CCC(=O)O)NC(=O)[C@H](CCC(N)=O)NC(=O)c1ccc2c(c1)C(=O)OC21c2ccc(O)cc2Oc2cc(O)ccc21)C(=O)N[C@@H](Cc1c[nH]cn1)C(=O)O)C(=O)N[C@@H](Cc1c[nH]cn1)C(=O)O` [Dimer fl-ARTS 266–274] (I: 5FAM-QEHQGQGCH-OH / II: 5FAM-QEHQGQGCH-OH; disulfide I:8-II:8) the Kd [1] was 2400 ± 100 nM.

With “YGPSLRLLA [fl-ARTS 248–256, fluorescein-labeled peptide of ARTS residues 248–256]” the “K d (µM), binding affinity to Bir3” value [2] was “nb” and the “K d (µM), binding affinity to Bir3” value ([2]; listed as ARTS 248–256) was “did not”.

In the case of “PPGAVKGTG [fl-ARTS 257–265, fluorescein-labeled peptide of ARTS residues 257–265]”, the “K d (µM), binding affinity to Bir3” value [2] is reported as “nb” and the “K d (µM), binding affinity to Bir3” value ([2]; listed as ARTS 257–265) is reported as “did not”.

Molecule “Bir3 domain of XIAP (residues 252-350) with a C-terminal His tag (from UniProt P98170 252-350) (domain or fragment)” has a Kd [3] of 2400 nM.

For “QEAQGQGCH [fl-ARTS 266–274 H268A, alanine-scan analogue of fl-ARTS 266–274]”, the “K d (µM), binding affinity to Bir3” value [2] was “nb” and the “K d (µM), binding affinity to Bir3” value ([2]; listed as ARTS 266–274 H268A) was “did not bind”.

“QEHQGQGAH [fl-ARTS 266–274 C273A, alanine-scan analogue of fl-ARTS 266–274]” was tested, and the “K d (µM), binding affinity to Bir3” value [2] was “nb” and the “K d (µM), binding affinity to Bir3” value ([2]; listed as Cys273A) was “did not bind”.

B1: ARTS CTD 248-274 (not labelled) (peptide)
peptide: YGPSLRLLAPPGAVKGTGQEHQGQGCH
notes: numbers count on: ARTS/Sept4_i2 (GenBank AAG45673.1); also called ARTS C-terminal domain; source: synthetic peptide
For B1, the binding result [4] was “binds” and the “stoichiometry N” value [5] was 2.

B2: fl-ARTS 266-274 Q271A (peptide)
peptide: {5'/6'‑carboxyfluorescein}-QEHQGAGCH
notes: numbers count on: ARTS/Sept4_i2 (GenBank AAG45673.1); source: synthetic peptide
For B2, the Kd [6] was 1300 ± 200 nM.

B3: fl-ARTS 266-274 E267A (peptide)
peptide: {5'/6'‑carboxyfluorescein}-QAHQGQGCH
notes: as for B2
B3 gave a Kd [6] of 3600 ± 800 nM.

B4: fl-ARTS 266-274 Q269A (peptide)
peptide: {5'/6'‑carboxyfluorescein}-QEHAGQGCH
notes: as for B2
Molecule B4 has a Kd [6] of 1000 ± 300 nM.

B5: fl-ARTS 266-274 (peptide)
peptide: {5'/6'‑carboxyfluorescein}-QEHQGQGCH
notes: numbers count on: ARTS/Sept4_i2 (GenBank AAG45673.1); also called ARTS 266-274 monomer; source: synthetic peptide
B5 was tested, and the Kd [6] was 2500 ± 300 nM and the Kd [7] was 2900 ± 300 nM.

B6: fl-ARTS 266-274 Q266A (peptide)
peptide: {5'/6'‑carboxyfluorescein}-AEHQGQGCH
notes: as for B2
In the case of B6, the Kd [6] is reported as 900 ± 100 nM.

B7: fl-ARTS 266-274 H274A (peptide)
peptide: {5'/6'‑carboxyfluorescein}-QEHQGQGCA
notes: as for B2
Work on B7 yielded a Kd [6] of 800 ± 300 nM.

B8: fl-ARTS 248-274 (peptide)
peptide: {5(6)‑carboxyfluorescein}-YGPSLRLLAPPGAVKGTGQEHQGQGCH
notes: numbers count on: ARTS/Sept4_i2 (GenBank AAG45673.1); also called fl-ARTS CTD; fluorescein-labeled ARTS CTD 248-274; source: synthetic peptide
With B8 the Kd [6] was 8000 ± 700 nM.
